From patent US20080044419A1, “Treatment of T Cell Mediated Diseases by Inhibition of Fgfr3” (Fibron Ltd., priority 2003, published 2008) come the findings set out here.

Changes are numbered by the printed parent chain.

Experiment [1] has as its target fibroblast growth factor receptor 3 (FGFR3), P22607. Briefly: cell-based or functional assay.
The target in experiment [2] is fibroblast growth factor receptor 3 (FGFR3) (UniProt P22607). Briefly: FACS. On the technique in general: In flow cytometry, cells or beads pass a laser one at a time.
Experiment [3] shares this target. The experiment can be described thus: not stated (BIAcore presumably).
Experiment [4] shares this target. Briefly: BIAcore. (SPR reads the build-up and loss of mass on a sensor chip optically.)

B1: PRO-024 Fab-dHLX (protein)
VH: QVQLVQSGAEVKKPGSSVKVSCKASGGTFSSYAISWVRQAPGQGLEWMGGIIPIFGTANYAQKFQGRVTITADESTSTAYMELSSLRSEDTAVYYCARVNHWTYTFDYWGQGTLVTVSS
VL: not shown
B1 had an IC50 FGFR3 (FGF9), FDCP-FGFR3 proliferation assay performed with FGF9 in experiment [1] of 70 nM.

B2: PRO-021 Fab-dHLX (protein)
VH: QVQLVQSGAEVKKPGSSVKVSCKASGGTFSSYAISWVRQAPGQGLEWMGGIIPIFGTANYAQKFQGRTITADESTSTAYMELSSLRSEDTAVYYCARDNWFKPFSDVWGQGTLVTVSS
VL: not shown
In the case of B2, the IC50 FGFR3 (FGF9), FDCP-FGFR3 proliferation assay performed with FGF9 in experiment [1] was 50 nM.

B3: PRO-002 (Fab, V domains shown)
VH: QVQLVQSGAEVKKPGASVKVSCKASGYTFTSYYMHWVRQAPGQGLEWMGWINPNSGGTNYAQKFQGRVTMTRDTSISTAYMELSSLRSEDTAVYYCARDFLGYEFDYWGQGTLVTVSS
VL: DIELTQPPSVSVAPGQTARISCSGDALGDKYASWYQQKPGQAPVLVIYDDSDRPSGIPERFSGSNSGNTATLTISGTQAEDEADYYCQSYDYSADYVFGGGTKLTVLG
In experiment [2], B3 had a dissociation constant Kd of 43 nM.

B4: PRO-054 Fab-dHLX (protein)
VH: QVQLVQSGAEVKKPGASVKVSCKASGYTFTSYYMHWVRQAPGQGLEWMGWINPNSGGTNYAQKFQGRVTMTRDTSISTAYMELSSLRSEDTAVYYCARNMAYTNYQYVNMPHFDYWGQGTLVTVSS
VL: DIELTQPPSVSVAPGQTARISCSGDALGDKYASWYQQKPGQAPVLVIYDDSDRPSGIPERFSGSNSGNTATLTISGTQAEDEADYYCQSYDYFKLVFGGGTKLTVLGQ
In the case of B4, the IC50 FGFR3 (FGF9), FDCP-FGFR3 proliferation assay performed with FGF9 in experiment [1] stood at 45 nM.

B5: PRO-029 Fab-dHLX (protein)
VH: QVQLVQSGAEVKKPGASVKVSCKASGYTFTSYYMHWVRQAPGQGLEWMGWINPNSGGTNYAQKFQGRVTMTRDTSISTAYMELSSLRSEDTAVYYCARTWQYSYFYYLDGGYYFDIWGQGTLVTVSS
VL: DIVLTQSPATLSLSPGERATLSCRASQSVSSSYLAWYQQKPGQAPRLLIYGASSRATGVPARFSGSGSGTDFTLTISSLEPEDFATYYCQQTNNAPVTFGQGTKVEIKRT
B5: the IC50 FGFR3 (FGF9), FDCP-FGFR3 proliferation assay performed with FGF9 in experiment [1] turned out to be 20 nM.

B6: PRO-029 (Fab, V domains shown)
VH: B5 VH
VL: DIVLTQSPATLSLSPGERATLSCRASQSVSSSYLAWYQQKPGQAPRLLIYGASSRATGVPARFSGSGSGTDFTLTISSLEPEDFATYYCQQTNNAPVTFGQGTKVEIKR
In experiment [2], B6 showed a Kd below 1 nM.

B7: PRO-001 Fab-dHLX (protein)
VH: QVQLQQSGPGLVKPSQTLSLTCAISGDSVSSNSAAWNWIRQSPGRGLEWLGRTYYRSKWYNDYAVSVKSRITINPDTSKNQFSLQLNSVTPEDTAVYYCARSYYPDFDYWGQGTLVTVSS
VL: DIELTQPPSVSVAPGQTARISCSGDALGDKYASWYQQKPGQAPVLVIYDDSDRPSGIPERFSGSNSGNTATLTISGTQAEDEADYYCQSYDGPDLWVFGGGTKLTVLGQ
B7 gave an IC50 FGFR3 (FGF9), FDCP-FGFR3 proliferation assay performed with FGF9 in experiment [1] of 19 nM.

B8: PRO-001 (Fab, V domains shown)
VH: B7 VH
VL: B3 VL with Y92G, S93P, A94D, D95L, Y96W
Regarding B8, the koff in experiment [3] came out at 0.00071 s⁻¹. Besides, the equilibrium dissociation constant (Kd) in experiment [2] was found to be 0.7 nM; in experiment [4], 1.5 nM.

B9: PRO-002 Fab-dHLX (protein)
VH: B3 VH
VL: B7 VL with G92Y, P93S, D94A, L95D, W96Y
As for B9, the IC50 FGFR3 (FGF9), FDCP-FGFR3 proliferation assay performed with FGF9 in experiment [1] is 360 nM.

B10: PRO-012 Fab-dHLX (protein)
VH: QVQLKESGPALVKPTQTLTLTCTFSGFSLSTSGVGVGWIRQPPGKALEWLALIDWDDDKYYSTSLKTRLTISKDTSKNQVVLTMTNMDPVDTATYYCARYHSWYEMGYYGSTVGYMFDYWGQGTLVTVSS
VL: DIELTQPPSVSVAPGQTARISCSGDALGDKYASWYQQKPGQAPVLVIYDDSDRPSGIPERFSGSNSGNTATLTISGTQAEDEADYYCQSYDFDFAVFGGTKLTVLGQ
In experiment [1], B10 gave an IC50 FGFR3 (FGF9), FDCP-FGFR3 proliferation assay performed with FGF9 of 58 nM.

B11: PRO-026 Fab-dHLX (protein)
VH: QVQLVQSGAEVKKPGASVKVSCKASGYTFTSYYMHWVRQAPGQGLEWMGWINPNSGGTNYAQKFQGRVTMTRDTSISTAYMELSSLRSEDTAVYYCARGYWYAYFTYINYGYFDNWGQGTLVTVSS
VL: DIALTQPASVSGSPGQSITISCTGTSSDVGGYNYVSWYQQHPGKAPKLMIYDVSNRPSGVSNRFSGSKSGNTASLTISGLQAEDEADYYCQSYDNNSDVVFGGGTKLTVLGQ
In the case of B11, the IC50 FGFR3 (FGF9), FDCP-FGFR3 proliferation assay performed with FGF9 in experiment [1] was found to be 70 nM.

B12: PRO-026 (Fab, V domains shown)
VH: B11 VH
VL: DIALTQPASVSGSPGQSITISCTGTSSDVGGYNYVSWYQQHPGKAPKLMIYDVSNRPSGVSNRFSGSKSGNTASLTISGLQAEDEADYYCQSYDNNSDVVFGGGTKLTVLG
As for B12, the Kd in experiment [2] turned out to be 1.4 nM.

B13: PRO-055 Fab-dHLX (protein)
VH: QVQLVQSGAEVKKPGASVKVSCKASGYTFTSYYMHWVRQAPGQGLEWMGWINPNSGGTNYAQKFQGRVTMTRDTSISTAYMELSSLRSEDTAVYYCARSMNSTMYWYLRRVLFDHWGQGTLVTVSS
VL: B11 VL with N95M, N96Y, S97N, D98Y, V99I
Turning to B13, the IC50 FGFR3 (FGF9), FDCP-FGFR3 proliferation assay performed with FGF9 in experiment [1] worked out at 34 nM.

The Kd is the equilibrium constant for the complex coming apart. A high value points to weaker binding. As a reminder, the koff is the rate constant with which the complex falls apart.
